Results on 8 molecules are retold here after patent US20240368302A1 (NANOMAB TECHNOLOGY, published 2024).

The Kd is the concentration at which binding is half-saturated. The term koff denotes a measure of how fast the partners let go of each other. The term kon denotes a measure of how fast the partners come together.

Test [1] deals with T1, rhesus monkey TROP2-Fc antigen protein (rhesus monkey, UniProt A0A5F8AGB8 27-274).
T1 construct: not shown: Fc
T1 sequence: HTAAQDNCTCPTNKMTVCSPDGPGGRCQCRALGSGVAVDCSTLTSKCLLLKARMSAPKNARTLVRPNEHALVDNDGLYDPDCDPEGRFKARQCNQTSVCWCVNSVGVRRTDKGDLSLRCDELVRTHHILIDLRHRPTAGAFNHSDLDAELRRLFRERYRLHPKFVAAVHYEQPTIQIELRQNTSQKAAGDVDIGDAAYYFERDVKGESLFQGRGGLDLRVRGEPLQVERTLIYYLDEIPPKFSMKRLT
The test can be described thus: ELISA, coated rhesus monkey TROP2-Fc, Kd calculated from absorbance. The method, then: (§1) The ELISA plates were coated with TROP2-Fc antigen proteins from human, mouse, and rhesus monkey overnight at 4° C. The plates were washed for 4 times with PBS-T the next day, added with 1% BSA, and blocked at room temperature for 2 hours. The plates were washed for 4 times with PBS-T, added with the anti-TROP2 single domain antibodies diluted in gradient, and standing at 37° C. for 1 hour. The plates were washed for 4 times with PBS-T, added with mouse anti-His-HRP antibody, and standing at 37° C. for 1 hour. The plates were washed for 4 times with PBS-T, added with TMB soluble substrate, and standing at room temperature for 10 minutes.

The target in test [2] is T2, mouse TROP2-Fc antigen protein (mouse, UniProt Q8BGV3 25-270, limits assumed).
T2 construct: not shown: Fc
T2 sequence (looked up): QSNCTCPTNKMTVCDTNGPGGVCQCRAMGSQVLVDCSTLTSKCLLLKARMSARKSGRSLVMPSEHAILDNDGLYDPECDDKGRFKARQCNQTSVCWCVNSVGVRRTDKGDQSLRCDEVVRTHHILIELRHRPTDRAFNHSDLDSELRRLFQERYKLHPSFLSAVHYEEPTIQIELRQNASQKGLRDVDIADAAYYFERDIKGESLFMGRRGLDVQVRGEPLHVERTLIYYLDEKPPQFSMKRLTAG
Description: ELISA, plate coated with mouse TROP2-Fc. Background: An ELISA detects its analyte on a solid surface through an enzyme-linked reagent.

In test [3] the target is T3, human TROP2-Fc protein antigen (human, UniProt P09758 27-274).
T3 construct: extracellular domain; also called CRD + TY-1 + CPD; not shown: IgG Fc of the pFUSE-IgG plasmid
T3 sequence (looked up): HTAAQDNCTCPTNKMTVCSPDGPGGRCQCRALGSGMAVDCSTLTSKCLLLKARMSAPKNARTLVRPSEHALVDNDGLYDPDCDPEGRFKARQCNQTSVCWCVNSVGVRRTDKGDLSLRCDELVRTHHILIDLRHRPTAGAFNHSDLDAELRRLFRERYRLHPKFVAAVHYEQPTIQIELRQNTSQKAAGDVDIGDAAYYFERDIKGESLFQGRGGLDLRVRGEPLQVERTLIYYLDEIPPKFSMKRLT
The test can be described thus: SPR (Biacore 8K), human TROP2-Fc on CM-5 chip, VHH in flow. The method, then:
The fixed phase human TROP2-Fc antigen proteins were fixed on the surface of CM-5 sensing chip using carboxyl amino reaction. The anti-TROP2 single domain antibodies were diluted with HBS buffer to different concentrations, and the anti-TROP2 single domain antibodies were added at a flow rate of 30 μl/min, binding for 90 seconds, dissociating for 600 seconds, and the binding process between the anti-TROP2 single domain antibody and the antigen was observed. After rinsing with 10 mM glycine solution for chip regeneration, the next anti TROP2 single domain antibody assay was proceeded.

Test [4] has as its target T4, Fc antigen protein of human TROP2 domains TY-1 + CPD (human, UniProt P09758 70-274, limits assumed).
T4 construct: domain: TY-1 + CPD; not shown: Fc
T4 sequence (looked up): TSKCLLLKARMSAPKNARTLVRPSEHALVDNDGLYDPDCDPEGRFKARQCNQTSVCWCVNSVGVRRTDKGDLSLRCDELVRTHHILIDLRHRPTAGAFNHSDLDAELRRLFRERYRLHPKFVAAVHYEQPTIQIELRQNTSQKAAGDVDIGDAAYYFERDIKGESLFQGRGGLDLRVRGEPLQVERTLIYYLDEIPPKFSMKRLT
The test can be described thus: ELISA, coated Fc protein of human TROP2 TY-1 + CPD, Kd calculated from absorbance. On the procedure:
as §1, with “Fc” for “TROP2-Fc”, “of different human TROP2 domains” for “from human, mouse, and rhesus monkey”, “minutes. […] The anti-TROP2 single domain antibodies of the present invention bind to different TROP2 domains.” for “minutes.”

Test [5] concerns the target T3, human TROP2-Fc protein antigen. Description: ELISA, coated Fc protein of human TROP2 CRD + TY-1 + CPD, Kd calculated from absorbance. On the procedure:
as §1, with “Fc” for “TROP2-Fc”, “of different human TROP2 domains” for “from human, mouse, and rhesus monkey”, “minutes. […] The anti-TROP2 single domain antibodies of the present invention bind to different TROP2 domains.” for “minutes.”

Test [6] has the same target. Description: ELISA, coated human TROP2-Fc, Kd calculated from absorbance.
Test [7] addresses T5, Fc antigen protein of human TROP2 domain CPD (human, UniProt P09758 146-274, limits assumed).
T5 construct: domain: CPD; not shown: Fc
T5 sequence (looked up): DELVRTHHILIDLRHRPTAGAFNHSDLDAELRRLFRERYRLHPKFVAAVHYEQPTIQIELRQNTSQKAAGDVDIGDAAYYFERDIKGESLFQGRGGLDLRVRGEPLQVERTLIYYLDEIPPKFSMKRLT
Description: ELISA, coated Fc protein of human TROP2 CPD, Kd calculated from absorbance. On the procedure:
as §1, with “Fc” for “TROP2-Fc”, “of different human TROP2 domains” for “from human, mouse, and rhesus monkey”, “minutes. […] The anti-TROP2 single domain antibodies of the present invention bind to different TROP2 domains.” for “minutes.”

B1: MY1530-6-1 (VHH)
VHH: QVQLQESGGGSVQAGGSLRLSCAASGFPYSSYSMGWFRQAPGKEREGVAAIYTGGGSTYYAGSVKGRFTISQEHATNTLYLQMNSLKPEDTAMYYCAANMVDNGVISGIQALGVRYYNYWGQGTQVTVSS
notes: Expressed in E. coli WK6 from vector pMECS, purified on a nickel column; also called MY1530-6-1 VHH; anti-TROP2 single domain antibody
As for B1, the Kd in test [1] was 4.47 nM; in test [3], 0.21 nM; in test [4] it was 2.14 nM; in test [5], 1.51 nM; in test [6] it was 1.51 nM. Besides, in test [2], the binding result is “no binding”. In test [3], the off-rate constant (koff) was 0.000227 s⁻¹. For the same molecule, in test [3], the kon was 1.09e+06 M⁻¹ s⁻¹.

B2: MY1530-4-28 (VHH)
VHH: QVQLQESGGGSVQAGGSLRLSCAASGFSVSTTWMHWVRQAPGKGLEWVSRIAINDHTFYAESVKGRFTMSTDNAKNTVYLQMTSLKPEDTAVYYCSPYSDYRIRGQGTQVTVSS
notes: Expressed in E. coli WK6 from vector pMECS, purified on a nickel column; also called MY1530-4-28 VHH; anti-TROP2 single domain antibody
For the molecule B2, the Kd in test [1] was 1.38 nM; in test [3] it was 4.89 nM; in test [5] it was 1.2 nM; in test [6], 1.2 nM. In addition, the binding result in test [2] is reported as “no binding”. The same molecule yielded a dissociation rate constant (koff) in test [3] of 0.000717 s⁻¹. For the same molecule, the kon in test [3] was 147000 M⁻¹ s⁻¹.

B3: MY1530-5-17 (VHH)
VHH: QVQLQESGGGSVQPGGSLRLSCVVSGYTVSSVCMAWFRQAPGMERELVAGFYHSGGTYYGDSVKGRFTASQDNAKNTLYLQMNSLKPEDTATYYCARARYPSSACGTSPSNYNIWGQGTQVTVSS
notes: Expressed in E. coli WK6 from vector pMECS, purified on a nickel column; also called MY1530-5-17 VHH; anti-TROP2 single domain antibody
Consider B3, for which the Kd in test [1] was 1.78 nM; in test [3] it was 0.27 nM; in test [7], 0.53 nM; in test [4], 0.53 nM; in test [5], 1.39 nM; in test [6], 1.39 nM. For the same molecule, the binding result in test [2] is recorded as “no binding”. In addition, the koff in test [3] came to 0.00011 s⁻¹. Further, the association rate constant (kon) in test [3] worked out at 405000 M⁻¹ s⁻¹.

B4: MY1530-4-22 (VHH)
VHH: QVQLQESGGGSVQAGGSLKLSCVVSGYTVSSVCMAWFRQAPGMERELVAGFYHSGGTYYGDSVKGRFTASQDNAKNTLYLQMNSLKPEDTATYYCARARYPSSACGTSPSNYNIWGQGTQVTVSS
notes: Expressed in E. coli WK6 from vector pMECS, purified on a nickel column; also called MY1530-4-22 VHH; anti-TROP2 single domain antibody
As for B4, the equilibrium dissociation constant (Kd) in test [1] is 1.67 nM; in test [3], 0.73 nM; in test [7], 1.02 nM; in test [4] it was 0.53 nM; in test [5], 1.29 nM; in test [6], 1.29 nM. Further, the binding result in test [2] is given as “no binding”. The molecule further showed a dissociation rate constant (koff) in test [3] of 0.000187 s⁻¹. For the same molecule, the on-rate constant (kon) in test [3] came to 257000 M⁻¹ s⁻¹.

B5: MY1530-5-54 (VHH)
VHH: QVQLQESGGGSVQPGGSLRLSCVASGYTASSVCMAWFRQAPGKERELVAGYYHSGGTYYGDSVKGRFTASQDNAKNTLYLQMNSLKPEDTATYYCARARYPSSACGTSPSNYNIWGQGTQVTVSS
notes: Expressed in E. coli WK6 from vector pMECS, purified on a nickel column; also called MY1530-5-54 VHH; anti-TROP2 single domain antibody
Regarding B5, the equilibrium dissociation constant (Kd) in test [1] is 1.73 nM; in test [3] it was 0.2 nM; in test [7] it was 0.53 nM; in test [4], 0.53 nM; in test [5], 1.28 nM; in test [6], 1.28 nM. Moreover, the binding result in test [2] is on record as “no binding”. The off-rate constant (koff) in test [3] turned out to be 8.99e-05 s⁻¹. For the same molecule, the kon in test [3] stood at 449000 M⁻¹ s⁻¹.

B6: MY1530-1-26 (VHH)
VHH: QVQLQESGGGSVQAGGSLRLSCVVSGYTTTRYSMAWFRQAPGKEREGVAGIDTDVLTTYKPSVEGRFTISRDSAKRTLYLQMNSLKPEDTAMYYCATGTGNFLALDPVWYNTWGQGTQVTVSS
notes: Expressed in E. coli WK6 from vector pMECS, purified on a nickel column; also called MY1530-1-26 VHH; anti-TROP2 single domain antibody
Turning to B6, the Kd in test [1] was 29.4 nM; in test [3], 1.89 nM; in test [5], 4.86 nM; in test [6] it was 4.86 nM. In test [2], the binding result is reported as “no binding”. In addition, the koff in test [3] came out at 0.00304 s⁻¹. Also, the kon in test [3] was 1.61e+06 M⁻¹ s⁻¹.

B7: MY1530-1-20 (VHH)
VHH: QVQLQESGGGSVLAGGSLRLSCTVSGSFVSSRSMAWFRQTPGKEREGVAAISQYGDPKYAGSVKGRFTMSRDNAKNTLLLQMNSLKPEDTAIYYCAAGEAWELATLSRSDYIYWGQGTQVTVSS
notes: Expressed in E. coli WK6 from vector pMECS, purified on a nickel column; also called MY1530-1-20 VHH; anti-TROP2 single domain antibody
As to B7, the Kd is 2.33 nM in test [1], 0.35 nM in test [3], 1.13 nM in test [5] and 1.13 nM in test [6]. Also, the binding result in test [2] is “no binding”. This molecule showed a koff in test [3] of 0.000179 s⁻¹. The kon in test [3] is 509000 M⁻¹ s⁻¹.

B8: MY1530-2-53 (VHH)
VHH: QVQLQESGGGSVQAGGSLRLSCAVSGLTSSTTCMGWFRQAPGKEREGVAVIRSSGETTAADSVKGRFTISRDNAKNTLSLQMTSLKPEDTAMYYCAAAWPYSGCLLPLSSGDFTYWGQGTQVTVSS
notes: Expressed in E. coli WK6 from vector pMECS, purified on a nickel column; also called MY1530-2-53 VHH; anti-TROP2 single domain antibody
With B8, the Kd in test [1] was 28.1 nM; in test [3], 9.83 nM; in test [5], 4.23 nM; in test [6], 4.23 nM. Also, the binding result in test [2] is reported as “no binding”. In test [3], this molecule returned a koff of 0.00443 s⁻¹. The same molecule came in with a kon in test [3] of 451000 M⁻¹ s⁻¹.
